Here are results for one substance from patent publication US5997865.

The target of the experiment is c-kit (mouse) (UniProt P05532).

Regarding kit ligand, the expansion in cell number after 7 days of coculture on 7-4 stroma (AA4+ Kit+ Flk-2+ cells) (not stated (cell number, Table 2)) was 210.
